The values below come from patent publication US20180127498A1 (UCB, published 2018).

“And” between values parts separate entries of the source, which are not always exact repeats. Identical values can stand only once.

In test [1] the target is T1, Human FcRn extracellular domain (non-covalent complex of human FcRn alpha chain extracellular domain and … (human, UniProt P55899 24-297; P61769 21-119).
T1 construct: also called hFcRn
Nature of the test: SPR Biacore T200, binder captured via anti-human F(ab')2, FcRn ECD as analyte, pH6; pH 6. The procedure:
(§1) Biomolecular interaction analysis using surface plasmon resonance technology (SPR) was performed on a Biacore T200 system (GE Healthcare) and binding to human FcRn extracellular domain determined. Human FcRn extracellular domain was provided as a non-covalent complex between the human FcRn alpha chain extracellular domain (SEQ ID NO: 21) and β2 microglobulin (β2M) (SEQ ID NO: 23). Affinipure F(ab′)₂ fragment goat anti-human IgG, F(ab′)₂-specific (Jackson ImmunoResearch Lab, Inc.) at 50 μg/ml in 10 mM NaAc, pH 5 buffer was immobilized on a CMS Sensor Chip via amine coupling chemistry to a capture level between 4000-5000 response units (RU) using HBS-EP⁺(GE Healthcare) as the running buffer.
(§2) The antibody, 1735h5.hFab-scFv.768 was diluted to 0.25 μg/ml in running buffer and an injection 60 s at 10 μl/min was used for capture by the immobilized anti-human F(ab)₂. […] The surface was regenerated at 10 μl/min by 2×60 s 50 mM HCl for the running buffer at pH6 or by 60 s 40 mM HCl and 30 s 10 mM NaOH for the running buffer at pH7.4. The data was analysed using Biacore T200 evaluation software (version 1.0) using the 1:1 binding model with local Rmax.

Test [2] concerns the target T2, Cynomolgus monkey FcRn extracellular domain (non-covalent complex of Cynomolgus monkey FcRn alpha chain … (Cynomolgus monkey, UniProt Q8SPV9 24-297; Q8SPW0 21-119).
T2 construct: also called non-human primate FcRn
Nature of the test: SPR Biacore T200, binder captured via anti-human F(ab')2, cyno FcRn ECD as analyte, pH6; pH 6. The procedure: (§3) Biomolecular interaction analysis using surface plasmon resonance technology (SPR) was performed on a Biacore T200 system (GE Healthcare) and binding to Cynomolgus monkey FcRn extracellular domain determined. Cynomolgus monkey FcRn extracellular domain was provided as a non-covalent complex between the Cynomolgus monley FcRn alpha chain extracellular domain (SEQ ID NO: 17) and […] (β2M) (SEQ ID NO: 18). Affinipure F(ab′)₂ fragment goat anti-human IgG, F(ab′)₂-specific (Jackson ImmunoResearch Lab, Inc.) at 50 μg/ml in 10 mM NaAc, pH 5 buffer was immobilized on a CMS Sensor Chip via amine coupling chemistry to a capture level between 4000-5000 response units (RU) using HBS-EP⁺ (GE Healthcare) as the running buffer.
(§4) The antibody, 1735h5.hFab-scFv.768 diluted to0.5 μg/ml in running buffer and an injection of 60 s at 10 μl/min was used for capture by the immobilized anti-human F(ab′)₂. […] The surface was regenerated at 10 μl/min by 2×60 s 50 mM HCl for the running buffer at pH6 or by 60 s 40 mM HCl and 30 s 10 mM NaOH for the running buffer at pH7.4.
(§5) The data was analysed using Biacore T200 evaluation software (version 1.0) using the 1:1 binding model with local Rmax.

Test [3] concerns the target T2, Cynomolgus monkey FcRn extracellular …. Nature of the test: SPR Biacore T200, binder captured via anti-human F(ab')2, cyno FcRn ECD as analyte, pH7.4; pH 7.4. Here is the method:
as §3, §4, §5

Test [4] concerns the target T1, Human FcRn extracellular domain …. In words: SPR Biacore T200, binder captured via anti-human F(ab')2, FcRn ECD as analyte, pH6, average of 5; pH 6. Here is the method:
as §1, §2

The target is the same in test [5]. In words: SPR Biacore T200, binder captured via anti-human F(ab')2, FcRn ECD as analyte, pH7.4, average of 5; pH 7.4. Here is the method: as §1, §2
Test [6] addresses T2, Cynomolgus monkey FcRn extracellular …. Nature of the test: SPR Biacore T200, binder captured via anti-human F(ab')2, cyno FcRn ECD as analyte, pH6, average of 5; pH 6. Here is the method:
as §3, §4, §5

For test [7] the target is unchanged. Nature of the test: SPR Biacore T200, binder captured via anti-human F(ab')2, cyno FcRn ECD as analyte, pH7.4, average of 5; pH 7.4. The procedure:
as §3, §4, §5

B1: 1735h5.hFab-scFv.768 (bispecific antibody)
heavy: EVQLVESGGGLVQPGGSLRLSCAASGFSLSTYGVGVGWVRQAPGKGLEWLANIWWDDDKRYNPSLENRFTISRDNAKNSAYLQMNSLRAEDTAVYYCARTPAYYGSHPPFDYWGQGTMVTVSSASTKGPSVFPLAPSSKSTSGGTAALGCLVKDYFPEPVTVSWNSGALTSGVHTFPAVLQSSGLYSLSSVVTVPSSSLGTQTYICNVNHKPSNTKVDKKVEPKSCSGGGGTGGGGSEVQLLESGGGLVQPGGSLRLSCAVSGIDLSNYAINWVRQAPGKCLEWIGIIWASGTTFYATWAKGRFTISRDNSKNTVYLQMNSLRAEDTAVYYCARTVPGYSTAPYFDLWGQGTLVTVSSGGGGSGGGGSGGGGSGGGGSDIQMTQSPSSVSASVGDRVTITCQSSPSVWSNFLSWYQQKPGKAPKLLIYEASKLTSGVPSRFSGSGSGTDFTLTISSLQPEDFATYYCGGGYSSISDTTFGCGTKVEIKRT
light: DIQMTQSPSSLSASVGDRVTITCRTSEDIYTNLAWYQQKPGKVPKLLIYVAKTLQEGVPSRFSGSGSGTHYTLTISSLQPEDVATYYCLQGFKFPWTFGGGTKVEIKRTVAAPSVFIFPPSDEQLKSGTASVVCLLNNFYPREAKVQWKVDNALQSGNSQESVTEQDSKDSTYSLSSTLTLSKADYEKHKVYACEVTHQGLSSPVTKSFNRGEC
notes: Anti-FcRn Fab (1638.g49 V-regions) fused at the C-terminus of CH1 to an anti-albumin disulphide stabilised scFv; expressed in CHO DG44; Monovalent for FcRn; also called Fab-dsscFv fusion protein comprising the 1638.g49 variable domains; anti-hFcRn 1735h5.hFab-scFv.768
Regarding B1, the kon in test [1] is 1.2e+06 M⁻¹ s⁻¹ and 1.1e+06 M⁻¹ s⁻¹ (3×); in test [2] it was 1.26e+06 M⁻¹ s⁻¹ and 1.24e+06 M⁻¹ s⁻¹; in test [3] it was 1e+06 M⁻¹ s⁻¹ (2×) and 999000 M⁻¹ s⁻¹; in test [4] it was 1.13e+06 M⁻¹ s⁻¹; in test [5] it was 861000 M⁻¹ s⁻¹; in test [6] it was 1.25e+06 M⁻¹ s⁻¹. The on-rate (kon) in test [7] is 1e+06 M⁻¹ s⁻¹. Moreover, the Kd turned out to be 0.16 nM in test [4], 0.0458 nM in test [5], 0.158 nM in test [6] and 0.045 nM in test [7]. Moreover, the koff was 0.000181 s⁻¹ in test [4], 3.94e-05 s⁻¹ in test [5], 0.000197 s⁻¹ in test [6] and 4.52e-05 s⁻¹ in test [7].
